T1: Activin AC (human, UniProt P55103 237-352)
T1 construct: Heterodimer of one betaA and one betaC subunit; bought (R&D Systems #4879-AC)
T1 sequence 1: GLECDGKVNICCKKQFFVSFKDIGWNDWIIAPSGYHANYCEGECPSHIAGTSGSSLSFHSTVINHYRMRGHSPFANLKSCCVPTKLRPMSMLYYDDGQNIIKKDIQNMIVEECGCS
T1 sequence 2: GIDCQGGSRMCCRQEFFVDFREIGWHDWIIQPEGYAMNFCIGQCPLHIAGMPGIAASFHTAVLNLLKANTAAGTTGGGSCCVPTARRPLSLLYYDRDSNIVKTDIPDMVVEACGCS

T2: Activin AB (human, UniProt P08476 311-426; P09529 293-407)
T2 chain 1: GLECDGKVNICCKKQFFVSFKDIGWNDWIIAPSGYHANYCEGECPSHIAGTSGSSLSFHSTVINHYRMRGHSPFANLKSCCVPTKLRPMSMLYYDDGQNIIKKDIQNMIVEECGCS
T2 chain 2: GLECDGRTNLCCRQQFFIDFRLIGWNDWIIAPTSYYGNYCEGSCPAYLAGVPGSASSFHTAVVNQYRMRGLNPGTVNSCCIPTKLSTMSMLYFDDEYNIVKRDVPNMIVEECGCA

T3: Activin A (human, UniProt P08476 311-426)
T3 sequence: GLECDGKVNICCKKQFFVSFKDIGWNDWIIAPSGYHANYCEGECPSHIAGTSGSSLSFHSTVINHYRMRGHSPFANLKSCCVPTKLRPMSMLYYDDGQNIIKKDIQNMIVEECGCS

T4: Activin B (human, UniProt P09529 293-407)
T4 construct: Homodimer of two betaB subunits; bought (R&D Systems #659-AB)
T4 chain: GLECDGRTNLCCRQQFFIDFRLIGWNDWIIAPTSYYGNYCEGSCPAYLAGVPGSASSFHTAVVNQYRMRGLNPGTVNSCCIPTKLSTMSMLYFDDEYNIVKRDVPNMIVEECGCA

T5: hBMP7 (human, UniProt P18075 293-431)
T5 construct: Bought protein
T5 sequence (looked up): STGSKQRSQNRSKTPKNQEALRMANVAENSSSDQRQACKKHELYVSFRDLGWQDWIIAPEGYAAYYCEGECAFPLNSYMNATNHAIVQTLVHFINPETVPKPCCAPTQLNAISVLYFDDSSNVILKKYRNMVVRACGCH

T6: hBMP9 (human, UniProt Q9UK05 320-429)
T6 construct: Bought protein
T6 sequence (looked up): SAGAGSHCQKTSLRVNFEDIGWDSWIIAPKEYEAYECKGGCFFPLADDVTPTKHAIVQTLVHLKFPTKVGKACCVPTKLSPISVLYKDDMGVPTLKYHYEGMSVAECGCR

T7: hBMP6 (human, UniProt P22004 382-513, limits assumed)
T7 construct: Bought protein
T7 sequence (looked up): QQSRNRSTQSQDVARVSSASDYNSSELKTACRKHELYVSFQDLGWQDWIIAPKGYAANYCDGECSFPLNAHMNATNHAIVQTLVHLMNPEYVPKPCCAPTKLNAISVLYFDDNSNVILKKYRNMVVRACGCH

T8: hBMP4 (human, UniProt P12644 293-408)
T8 construct: Bought protein
T8 sequence (looked up): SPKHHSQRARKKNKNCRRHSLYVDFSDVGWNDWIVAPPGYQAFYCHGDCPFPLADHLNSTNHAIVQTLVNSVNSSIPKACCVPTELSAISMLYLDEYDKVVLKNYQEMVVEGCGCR

T9: hBMP10 (human, UniProt O95393 317-424)
T9 construct: Bought protein
T9 sequence (looked up): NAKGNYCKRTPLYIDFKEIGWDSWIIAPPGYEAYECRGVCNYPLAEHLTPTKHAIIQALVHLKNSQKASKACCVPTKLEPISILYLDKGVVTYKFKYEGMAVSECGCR


Experiments:
Activin AC [1] = biological target: T1, Activin AC; experiment: SPR (Biacore), mAb captured on anti-Fc, Activin AC injected, 37 C
Procedure, shortened: (§1)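 240 s association, 600 s buffer dissociation; ka, kd fitted; KD (M) = kd/ka; t1/2 (min) = ln2/(60*kd).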

Activin AB [2] = biological target: T2, Activin AB; experiment: cell-based or functional assay
Activin A [3] = biological target: T3, Activin A; experiment: cell-based or functional assay
Activin AC [4] = biological target: T1, Activin AC; experiment: cell-based or functional assay
Activin AB [5] = biological target: T2, Activin AB; experiment: SPR (Biacore), mAb captured on anti-Fc, Activin AB injected, 37 C
Procedure, shortened: as §1

Activin AC [6] = biological target: T1, Activin AC; experiment: SPR (Biacore), mAb captured on anti-Fc, Activin AC injected, 25 C
Procedure, shortened: as §1

Activin AB [7] = biological target: T2, Activin AB; experiment: SPR (Biacore), mAb captured on anti-Fc, Activin AB injected, 25 C
Procedure, shortened: as §1

Activin B = biological target: T4, Activin B; experiment: SPR (Biacore 4000), captured on anti-human Fc, 200 nM ligand injected, 37 C
Experimental: (§2) For the binding experiment, a Biacore 4000 instrument was used. […] All Biacore binding studies were performed in HBS-T running buffer (0.01 M HEPES pH 7.4, 0.5 M NaCl, 3 mM EDTA, 0.5 mg/ml bovine serum albumin, 0.05% v/v Surfactant P20). […] All binding measurements were performed at 37° C. […] Over the captured antibody surface was injected the TGF-beta family ligands through concentrations ranging from 3.1 nM to 200 nM.

hBMP7 = biological target: T5, hBMP7; experiment: as above
Experimental: as §2

hBMP2 = biological target: T10, hBMP2 (human, UniProt P12643 283-396); experiment: as above
T10 construct: Bought protein; also called BPM2
T10 sequence (P12643 283-396 limits assumed): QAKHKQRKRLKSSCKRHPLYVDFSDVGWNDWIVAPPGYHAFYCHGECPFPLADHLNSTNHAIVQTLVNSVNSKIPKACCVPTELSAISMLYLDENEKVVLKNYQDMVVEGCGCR
Experimental: as §2

Activin AB [8] = biological target: T2, Activin AB; experiment: as above
Experimental: as §2

GDF8 = biological target: T11, GDF8 (human, UniProt O14793 267-375); experiment: as above
T11 construct: Bought (R&D Systems #788-G8); also called hGDF8; growth and differentiation factor-8
Experimental: as §2

GDF11 = biological target: T12, GDF11 (human, UniProt O95390 299-407); experiment: as above
T12 construct: Bought protein; also called hGDF11
T12 sequence (O95390 299-407 limits assumed): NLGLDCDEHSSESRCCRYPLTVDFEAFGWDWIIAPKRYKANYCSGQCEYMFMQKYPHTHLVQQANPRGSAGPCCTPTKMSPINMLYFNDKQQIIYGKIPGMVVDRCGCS
Experimental: as §2

hBMP9 = biological target: T6, hBMP9; experiment: as above
Experimental: as §2

hBMP6 = biological target: T7, hBMP6; experiment: as above
Experimental: as §2

Activin A [9] = biological target: T3, Activin A; experiment: as above
Experimental: as §2

hBMP4 = biological target: T8, hBMP4; experiment: as above
Experimental: as §2

Activin AC [10] = biological target: T1, Activin AC; experiment: as above
Experimental: as §2

hBMP10 = biological target: T9, hBMP10; experiment: as above
Experimental: as §2

50 nM Ag Bound (RU) (Activin AC [1]) | Kd (Activin AC [1]) | koff (Activin AC [1]) | kon (Activin AC [1]) | t1/2 (Activin AC [1]) | IC50 [M], inhibition of 30 pM Activin AB in A204/CAGAx12-Luc Smad2/3-luciferase bioassay (Activin AB [2]) | IC50 [M], inhibition of 100 pM Activin A in A204/CAGAx12-Luc Smad2/3-luciferase bioassay (Activin A [3]) | IC50 [M], inhibition of 4 nM Activin AC in A204/CAGAx12-Luc Smad2/3-luciferase bioassay (Activin AC [4]) | 50 nM Ag Bound (RU) (Activin AB [5]) | Kd (Activin AB [5]) | koff (Activin AB [5]) | kon (Activin AB [5]) | t1/2 (Activin AB [5]) | 50 nM Ag Bound (RU) (Activin AC [6]) | Kd (Activin AC [6]) | koff (Activin AC [6]) | kon (Activin AC [6]) | t1/2 (Activin AC [6]) | 50 nM Ag Bound (RU) (Activin AB [7]) | Kd (Activin AB [7]) | Binder | further results
21.4 RU | 4.1 nM | 0.00599 s⁻¹ | 1.46e+06 M⁻¹ s⁻¹ | 1.9 min | 2.2e-09 M | 5.6e-11 M | 6.5e-09 M | 45.9 RU | 0.464 nM | 0.00425 s⁻¹ | 9.17e+06 M⁻¹ s⁻¹ | 2.7 min | 18.6 RU | 1.57 nM | 0.00205 s⁻¹ | 1.31e+06 M⁻¹ s⁻¹ | 5.6 min | 34.6 RU | 0.32 nM | H4H10442P2 (antibody, human IgG4, V domains shown) VH: QVQLQESGPGLVKPSETLSITCTVSGGSFSSHFWTWIRQPPGKGLEWIGYLHYSGGTSYNPSLKSRVIISVDTSKNQFSLKLNSVTAADTAVYYCARARSGITFGGLIVPGSFDIWGQGTMVTVSS VL: not shown | koff (Activin AB [7]): 0.00177 s⁻¹; kon (Activin AB [7]): 5.53e+06 M⁻¹ s⁻¹; t1/2 (Activin AB [7]): 6.5 min; binding response (resonance units) for 200 nM ligand (Activin B): -1.8 RU; binding response (resonance units) for 200 nM ligand (hBMP7): 1.5 RU; binding response (resonance units) for 200 nM ligand (hBMP2): -2.3 RU; binding response (resonance units) for 200 nM ligand (Activin AB [8]): 65.2 RU; binding response (resonance units) for 200 nM ligand (GDF8): 0.5 RU; binding response (resonance units) for 200 nM ligand (GDF11): 1 RU; binding response (resonance units) for 200 nM ligand (hBMP9): 0 RU; binding response (resonance units) for 200 nM ligand (hBMP6): 1.1 RU; binding response (resonance units) for 200 nM ligand (Activin A [9]): 63.9 RU; binding response (resonance units) for 200 nM ligand (hBMP4): -0.7 RU; binding response (resonance units) for 200 nM ligand (Activin AC [10]): 14.2 RU; binding response (resonance units) for 200 nM ligand (hBMP10): -0.7 RU
14.4 RU | 22.5 nM | 0.0216 s⁻¹ | 959000 M⁻¹ s⁻¹ | 0.5 min | 8.2e-09 M | 4.7e-11 M | 5.6e-09 M | 41.5 RU | 1.34 nM | 0.00817 s⁻¹ | 6.08e+06 M⁻¹ s⁻¹ | 1.4 min | 12.6 RU | 11.8 nM | 0.0122 s⁻¹ | 1.04e+06 M⁻¹ s⁻¹ | 0.9 min | 31.9 RU | 0.815 nM | H4H10446P2 (antibody, human IgG4, V domains shown) VH: QVQLQESGPGLVKPSETLSLTCTVSGGSFSSHFWSWIRQPPGKGLEWIGYILYTGGTSFNPSLKSRVSMSVGTSKNQFSLKLSSVTAADTAVYYCARARSGITFTGIIVPGSFDIWGQGTMVTVSS VL: not shown | koff (Activin AB [7]): 0.00406 s⁻¹; kon (Activin AB [7]): 4.99e+06 M⁻¹ s⁻¹; t1/2 (Activin AB [7]): 2.8 min; binding response (resonance units) for 200 nM ligand (Activin B): 2.6 RU; binding response (resonance units) for 200 nM ligand (hBMP7): 5.7 RU; binding response (resonance units) for 200 nM ligand (hBMP2): 3.3 RU; binding response (resonance units) for 200 nM ligand (Activin AB [8]): 66.7 RU; binding response (resonance units) for 200 nM ligand (GDF8): 0.7 RU; binding response (resonance units) for 200 nM ligand (GDF11): 1.8 RU; binding response (resonance units) for 200 nM ligand (hBMP9): -0.3 RU; binding response (resonance units) for 200 nM ligand (hBMP6): 5.3 RU; binding response (resonance units) for 200 nM ligand (Activin A [9]): 53.2 RU; binding response (resonance units) for 200 nM ligand (hBMP4): 0.8 RU; binding response (resonance units) for 200 nM ligand (Activin AC [10]): 15.2 RU; binding response (resonance units) for 200 nM ligand (hBMP10): 0.5 RU
25.3 RU | 16.7 nM | 0.02 s⁻¹ | 1.2e+06 M⁻¹ s⁻¹ | 0.6 min | 1e-10 M | 6.1e-11 M | 9.3e-10 M | 41 RU | 0.0535 nM | 0.000541 s⁻¹ | 1.01e+07 M⁻¹ s⁻¹ | 21.3 min | 23.6 RU | 8.86 nM | 0.0109 s⁻¹ | 1.23e+06 M⁻¹ s⁻¹ | 1.1 min | 33 RU | 0.0185 nM | H4H10430P (antibody, human IgG4, V domains shown) VH: EVQLVESGGGLVQPGRSLRLSCKASGFAFDDFAMHWVRQAPGKGLEWVSGIVWNSGDIGYADSVKGRFTISRDNAKNSLYLQLNSLRTEDTALYFCVKDMVRGLMGFNYYGMDVWGQGTTVTVSS VL: EIVLTQSPATLSLSPGERATLSCRASQTISTYLVWYRQRPGQAPSLLIYDASNRATDIPARFSGSGSGTDFTLTISSLEPEDFAVYYCQQRSNWPITFGQGTRLEIK | koff (Activin AB [7]): 0.000217 s⁻¹; kon (Activin AB [7]): 1.17e+07 M⁻¹ s⁻¹; t1/2 (Activin AB [7]): 53.3 min; binding response (resonance units) for 200 nM ligand (Activin B): 0.4 RU; binding response (resonance units) for 200 nM ligand (hBMP7): 6.4 RU; binding response (resonance units) for 200 nM ligand (hBMP2): -1.7 RU; binding response (resonance units) for 200 nM ligand (Activin AB [8]): 95 RU; binding response (resonance units) for 200 nM ligand (GDF8): -0.1 RU; binding response (resonance units) for 200 nM ligand (GDF11): 3 RU; binding response (resonance units) for 200 nM ligand (hBMP9): -0.6 RU; binding response (resonance units) for 200 nM ligand (hBMP6): 5.7 RU; binding response (resonance units) for 200 nM ligand (Activin A [9]): 69.1 RU; binding response (resonance units) for 200 nM ligand (hBMP4): -0.6 RU; binding response (resonance units) for 200 nM ligand (Activin AC [10]): 34.8 RU; binding response (resonance units) for 200 nM ligand (hBMP10): 0.3 RU
